This note sets out measurements from US20220291215A1.

Where two headings read alike, the source gives them in different places.

For test [1], the target named is Transduced TCR: None.
For test [2], the target named is DR1-restricted TCR HA1.7.
In test [3] the target is memory CD4+ T cells from DR1+ donors, unstimulated (a small subset; their TCRs).
For test [4] the target is unchanged. The source holds these as a separate data set.
In test [5] the target is DR1-restricted TCR HA1.7. The test is described as follows: flow cytometry, TCR-transduced primary T cells. For orientation: A flow cytometer gives signals particle by particle.
Test [6] concerns the target memory CD4+ T cells from DR1+ donors, unstimulated (a small subset; their TCRs). This is another data set of the same source.
In test [7] the target is DR1-restricted TCR HA1.7. The source holds these as a separate data set.
In test [8] the target is Transduced TCR: None. This is another data set of the same source.
The target of test [9] is DR1-restricted TCR HA1.7. This is another data set of the same source.
Test [10] concerns the target memory CD4+ T cells from DR1+ donors, unstimulated (a small subset; their TCRs). The source holds these as a separate data set.
The target of test [11] is Transduced TCR: None. The source holds these as a separate data set.
In test [12] the target is DR1-restricted TCR HA1.7. The source holds these as a separate data set.
Test [13] concerns the target memory CD4+ T cells from DR1+ donors, unstimulated (a small subset; their TCRs). The source holds these as a separate data set.
For test [14] the target is unchanged. The source holds these as a separate data set.
For test [15] the target is unchanged. The source holds these as a separate data set.
The target is the same in test [16]. This is another data set of the same source.
Test [17] shares this target. The source holds these as a separate data set.
Test [18] has as its target Transduced TCR: None. This is another data set of the same source.

With “DR1^L114W/V143M dimer loaded with Flu-HA306-318 (peptide-MHC)”, the percent multimer-positive CD4+ cells (number at the gate) in the test with Transduced TCR: None [1] was determined as 0%; in the test with DR1-restricted TCR HA1.7 [2], 1.5%.

Turning to “DR1^L114W/V143M+2reps dimer loaded with Flu-HA117-136 (peptide-MHC)”, the figures for the events in the dimer+ CD4+ gate in test [3] and in test [4] were 74 evts and 10 evts, respectively.

“DR1^L114W/V143M+2reps dimer loaded with Flu-HA306-318 (peptide-MHC)”: in the test with DR1-restricted TCR HA1.7 [5], the % dimer+ CD4+ cells worked out at 9.1%. Besides, the events in the dimer+ CD4+ gate was found to be 53 evts in [6] and 18 evts in test [10]. Moreover, the values for the percent multimer-positive CD4+ cells (number at the gate) in the test with DR1-restricted TCR HA1.7 [7], with Transduced TCR: None [8] and with DR1-restricted TCR HA1.7 [9] were 53%, 0% and 48.9%, respectively.

With “DR1^L114W/V143M+6reps dimer loaded with Flu-HA306-318 (peptide-MHC)”, the results for the percent multimer-positive CD4+ cells (number at the gate) in the test with Transduced TCR: None [11] and with DR1-restricted TCR HA1.7 [12] were 0.1% and 48.2%, respectively.

Turning to “Flu-HA5-24, DR1^L114W/V143M+2reps dimer (PE) (peptide-MHC)”, the values for the events in the dimer+ CD4+ gate in test [13] and in test [14] were 1 evts and 2 evts, respectively.

For “Flu-HA232-251, DR1^L114W/V143M+2reps dimer (PE) (peptide-MHC)”, in test [15], the events in the dimer+ CD4+ gate was found to be 0 evts.

For the substance “Flu-HA268-287, DR1^L114W/V143M+2reps dimer (PE) (peptide-MHC)”, the events in the dimer+ CD4+ gate amounted to 0 evts in test [16] and 2 evts in test [17].

In the test with Transduced TCR: None [18], “wild-type DR1 dimer loaded with Flu-HA306-318 (from UniProt P01911 30-227) (peptide-MHC)” yielded a percent multimer-positive CD4+ cells (number at the gate) of 0.1%.
